Measurements: patent publication US20230381281A1, “PHARMACEUTICAL COMPOSITION COMPRISING GLUCAGON/GLP-1/GIP TRIPLE AGONIST OR LONG-ACTING CONJUGATE THEREOF FOR PREVENTING OR TREATING LUPUS-RELATED DISEASES” (HANMI PHARM. CO., LTD., priority 2020, published 2023)
Bridge positions count the residues as written; N and C are the ends. Square brackets hold non-standard residues; d marks the D form. Ends that are not written are not given here. * marks the point of attachment. Acetyl(2-(4-imidazolyl)) = O=C(Cc1c[nH]cn1)*; Aib = CC(C)(N)C(=O)O

Assays:
Experiment in all cases: cell-based or functional assay
human GCG receptor = human GCG receptor (human, UniProt P47871 26-477)
human GCG receptor, sequence (P47871 26-477): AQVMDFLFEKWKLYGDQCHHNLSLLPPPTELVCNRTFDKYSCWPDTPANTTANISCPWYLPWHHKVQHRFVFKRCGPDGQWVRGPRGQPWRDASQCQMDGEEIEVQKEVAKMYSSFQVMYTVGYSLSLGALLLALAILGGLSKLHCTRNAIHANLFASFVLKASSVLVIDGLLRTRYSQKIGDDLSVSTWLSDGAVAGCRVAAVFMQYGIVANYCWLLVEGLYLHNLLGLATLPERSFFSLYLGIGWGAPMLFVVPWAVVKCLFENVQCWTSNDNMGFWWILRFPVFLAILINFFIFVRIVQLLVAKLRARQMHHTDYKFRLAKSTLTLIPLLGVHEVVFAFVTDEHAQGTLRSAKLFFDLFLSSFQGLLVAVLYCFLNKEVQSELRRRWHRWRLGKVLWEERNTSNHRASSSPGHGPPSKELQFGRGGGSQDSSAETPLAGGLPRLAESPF

human GIP receptor = biological target: T1, human GIP receptor (human, UniProt P48546 22-466)
T1 sequence (looked up): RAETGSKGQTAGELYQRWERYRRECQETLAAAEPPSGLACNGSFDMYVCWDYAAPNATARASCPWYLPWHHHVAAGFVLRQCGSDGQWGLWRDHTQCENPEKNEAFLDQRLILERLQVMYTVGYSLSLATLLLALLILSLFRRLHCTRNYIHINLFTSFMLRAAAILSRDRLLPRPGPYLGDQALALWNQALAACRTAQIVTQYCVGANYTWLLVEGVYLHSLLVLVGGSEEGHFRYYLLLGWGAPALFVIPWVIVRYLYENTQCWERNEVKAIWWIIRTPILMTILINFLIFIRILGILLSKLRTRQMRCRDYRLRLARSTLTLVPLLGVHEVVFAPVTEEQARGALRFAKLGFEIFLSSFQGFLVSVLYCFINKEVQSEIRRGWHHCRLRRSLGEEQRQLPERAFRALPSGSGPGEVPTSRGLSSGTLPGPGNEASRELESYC

human GLP-1 receptor = human GLP-1 receptor (human, UniProt P43220 24-463)

Row | Binder | In vitro activity compared to native peptide (%) vs Glucagon (human GCG receptor) [%] | In vitro activity compared to native peptide (%) vs GIP (human GIP receptor) [%] | In vitro activity compared to native peptide (%) vs GLP-1 (human GLP-1 receptor) [%]
1 | {Acetyl(2-(4-imidazolyl))}-[Aib]QGTFTSDYSICMDEIHQKDFVNWLLNTK (bridge 15-19) [Triple agonist of SEQ ID NO: 49] | < 0.1 | 3.3 | 29.8
2 | H[Aib]QGTFTSDYSKYLCEKRQKEFVQWLLNGGPSSGAPPPSG (bridge 16-20) [Triple agonist of SEQ ID NO: 36] | 0.39 | 0.2 | 37.4
3 | H[Aib]QGTFTSDYSKYLDGQHAQCFVAWLLAGGGPSSGAPPPS [Triple agonist of SEQ ID NO: 39] | 0.53 | < 0.1 | 13.9
4 | H[Aib]QGTFTSDYSKYLDEKRQKEFVQWLLNTC (bridge 16-20) [Triple agonist of SEQ ID NO: 51] | 2 | 0.1 | 14.4
5 | H[Aib]QGTFTSDVSSYLDGQAAKEFVAWLLKGC [Triple agonist of SEQ ID NO: 6] | < 0.1 | < 0.1 | 17
6 | H[Aib]EGTFTSDYSIAMDEIHQKDFVDWLLAEC (bridge 16-20) [Triple agonist of SEQ ID NO: 54] | 1.4 | 0.1 | 30.6
7 | H[Aib]QGTFTSDYSKYLDECRQKEFVQWLLNGGPSSGAPPPSG (bridge 16-20) [Triple agonist of SEQ ID NO: 37] | 6.21 | 2.2 | 236
8 | Y[Aib]QGTFTSDYSKYLDEKRAKEFVQWLLDHHPSSGQPPPSC (bridge 16-20) [Triple agonist of SEQ ID NO: 42] | 206 | 7.8 | 33.9
9 | H[Aib]QGTFTSDKSKYLDERACQDFVQWLLDGGPSSGAPPPS [Triple agonist of SEQ ID NO: 40] | < 0.1 | < 0.1 | 75.2
10 | H[Aib]QGTFTSDYSKYLDEKRQKEFVNWLLAQKC (bridge 16-20) [Triple agonist of SEQ ID NO: 34] | 0.92 | 0.6 | 19.1
11 | H[Aib]QGTFTSDVSSYLLGQQQKEFIAWLVKGGGPSSGAPPPSC [Triple agonist of SEQ ID NO: 5] | < 0.1 | < 0.1 | 42.1
12 | H[Aib]QGTFTSDVSSYLDGQAAKEFIAWLVKGC [Triple agonist of SEQ ID NO: 1] | < 0.1 | < 0.1 | 3.2
13 | {Acetyl(2-(4-imidazolyl))}-[Aib]QGTFTSDKSSYLDERAAQDFVQWLLDGGPSSGAPPPSS [Triple agonist of SEQ ID NO: 38] | – | – | 2.3
14 | H[Aib]EGTFTSDYSIAMDEIHQKDFVNWLLAQC (bridge 16-20) [Triple agonist of SEQ ID NO: 53] | 8.4 | 1.3 | 161
15 | H[Aib]QGTFTSDYSKYLDEKRAKEFVQWLLDHHPSSGQPPPSC (bridge 16-20) [Triple agonist of SEQ ID NO: 50] | 50.5 | 2.7 | 67.4
16 | Y[Aib]QGTFTSDYSKYLDEKRAKEFVQWLLDHHCSSGQPPPS (bridge 16-20) [Triple agonist of SEQ ID NO: 43] | 88.4 | 3.7 | 12.6
17 | H[Aib]QGTFTSDVSSYLLGQQQKEFIAWLVKGC [Triple agonist of SEQ ID NO: 4] | < 0.1 | < 0.1 | 8.5
18 | H[Aib]QGTFTSDYSKYLDEKRQKEFVQWLLDTC (bridge 16-20) [Triple agonist of SEQ ID NO: 52] | 7.5 | 0.3 | 44.1
19 | HGQGTFTSDCSKQLDGQAAQEFVAWLLAGGPSSGAPPPS [Triple agonist of SEQ ID NO: 44] | < 0.1 | < 0.1 | 1.3
20 | HGQGTFTSDCSKYLDEQHAQEFVAWLLAGGPSSGAPPPS [Triple agonist of SEQ ID NO: 46] | < 0.1 | < 0.1 | 1.4
21 | HGQGTFTSDCSKYLDGQRAQEFVAWLLAGGPSSGAPPPS [Triple agonist of SEQ ID NO: 47] | < 0.1 | < 0.1 | 2.4
22 | HGQGTFTSDCSKYMDGQAAQDFVAWLLAGGPSSGAPPPS [Triple agonist of SEQ ID NO: 45] | < 0.1 | < 0.1 | 6.6
23 | HGQGTFTSDCSKYLDGQRAQDFVNWLLAGGPSSGAPPPS [Triple agonist of SEQ ID NO: 48] | < 0.1 | < 0.1 | 1.5
24 | H[Aib]QGTFTSDKSKYLDECAAQDFVQWLLDGGPSSGAPPPS [Triple agonist of SEQ ID NO: 41] | < 0.1 | < 0.1 | 34.3
25 | H[Aib]QGTFTSDYSIAMDEIHQKDFVNWLLNTKC (bridge 16-20) [Triple agonist of SEQ ID NO: 35] | < 0.1 | 1.3 | 7.5
